Source: patent publication US20240425571A1 (OHIO STATE INNOVATION FOUNDATION, published 2024)

T1: human GARP (glycoprotein A repetitions predominant, LRRC32) on the cell surface (human, UniProt Q14392 20-662)
T1 construct: whole, on cells; also called hGARP; free GARP
T1 sequence (looked up): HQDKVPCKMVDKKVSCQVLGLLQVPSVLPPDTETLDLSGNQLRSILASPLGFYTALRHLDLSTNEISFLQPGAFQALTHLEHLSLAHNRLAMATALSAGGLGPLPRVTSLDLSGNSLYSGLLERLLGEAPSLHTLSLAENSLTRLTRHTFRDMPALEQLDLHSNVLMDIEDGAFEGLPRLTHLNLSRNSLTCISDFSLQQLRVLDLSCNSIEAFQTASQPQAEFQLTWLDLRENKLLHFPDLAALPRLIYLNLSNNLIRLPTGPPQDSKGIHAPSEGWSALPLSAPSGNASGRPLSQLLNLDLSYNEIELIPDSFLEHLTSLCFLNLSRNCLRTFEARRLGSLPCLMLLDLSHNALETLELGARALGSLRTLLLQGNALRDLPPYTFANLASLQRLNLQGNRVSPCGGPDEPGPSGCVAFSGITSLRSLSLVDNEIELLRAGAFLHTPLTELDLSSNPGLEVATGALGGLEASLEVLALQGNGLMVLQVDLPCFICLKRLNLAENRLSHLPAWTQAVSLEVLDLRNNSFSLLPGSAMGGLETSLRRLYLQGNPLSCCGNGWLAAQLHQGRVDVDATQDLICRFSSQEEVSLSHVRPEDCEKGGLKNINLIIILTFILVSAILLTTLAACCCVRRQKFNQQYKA

T2: human GARP (antigen, construct not stated) (human, UniProt Q14392 20-627, limits assumed)
T2 sequence (looked up): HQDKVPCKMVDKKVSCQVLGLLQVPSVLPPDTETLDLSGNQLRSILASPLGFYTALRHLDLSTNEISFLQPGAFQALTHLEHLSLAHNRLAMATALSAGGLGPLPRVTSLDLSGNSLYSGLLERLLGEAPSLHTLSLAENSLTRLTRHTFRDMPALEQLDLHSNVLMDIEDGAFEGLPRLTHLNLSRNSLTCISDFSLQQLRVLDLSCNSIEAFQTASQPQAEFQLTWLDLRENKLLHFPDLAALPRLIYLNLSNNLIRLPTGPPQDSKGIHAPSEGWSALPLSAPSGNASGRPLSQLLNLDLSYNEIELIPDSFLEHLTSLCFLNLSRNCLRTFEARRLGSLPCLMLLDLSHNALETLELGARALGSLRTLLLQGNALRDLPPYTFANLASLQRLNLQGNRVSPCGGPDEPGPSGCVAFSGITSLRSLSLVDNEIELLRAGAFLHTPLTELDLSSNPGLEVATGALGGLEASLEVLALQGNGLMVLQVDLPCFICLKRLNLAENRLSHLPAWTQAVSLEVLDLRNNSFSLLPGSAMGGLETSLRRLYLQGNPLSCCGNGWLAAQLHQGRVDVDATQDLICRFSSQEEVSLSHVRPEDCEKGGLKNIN


Key:
[1] = target: T1, human GARP (glycoprotein A repetitions …); experiment: FACS, Ag(+) cells, 0 ug/ml antibody (blank)
[2] = target: T1, human GARP (glycoprotein A repetitions …); experiment: FACS, Ag(+) cells, culture supernatant, 0.2 ug/ml
[3] = target: T1, human GARP (glycoprotein A repetitions …); experiment: FACS, Ag(+) cells, culture supernatant, 1 ug/ml
[4] = target: T1, human GARP (glycoprotein A repetitions …); experiment: FACS, Ag(+) cells, heated-sample series, 0 ug/ml antibody (blank)
[5] = target: T2, human GARP (antigen, construct not …); experiment: Gator label-free kinetics, IgG on anti-human Fc probe, antigen 5 ug/ml
[6] = target: T1, human GARP (glycoprotein A repetitions …); experiment: FACS, Ag(+) cells, supernatant heated 70 C 5 min, 5 ug/ml
[7] = target: T1, human GARP (glycoprotein A repetitions …); experiment: FACS, Ag(+) cells, culture supernatant, 5 ug/ml
[8] = target: T1, human GARP (glycoprotein A repetitions …); experiment: FACS, Ag(+) cells, supernatant heated 70 C 5 min, 0.2 ug/ml
[9] = target: T1, human GARP (glycoprotein A repetitions …); experiment: FACS, Ag(+) cells, supernatant heated 70 C 5 min, 1 ug/ml

MFI [1] [MFI] | MFI [2] [MFI] | MFI [3] [MFI] | MFI [4] [MFI] | Kd [5] [nM] | Req [5] | Response [5] | kobs [5] | MFI [6] [MFI] | MFI [7] [MFI] | MFI [8] [MFI] | MFI [9] [MFI] | Binder
9.91 | 23.9 | 25.8 | 9.91 | 8.05 | 0.743 | 0.737 | 0.0134 | 26.2 | 26.4 |  |  | huPIIO-1VH1VL1 (antibody, V domains shown, Humanized 4D3/PIIO-1 IgG made in Expi293 cells; also called H1L1; HuPIIO-1VH1/L1) VH: QVQLQESGPGLVKPSQTLSLTCTVSGYSITSDYAWNWIRQFPGNKLEWMGYISYSGSTSYTPSLKSRVTISRDTSKNHFSLKLSSVTAADTAVYYCAKSGGDYYGSSSYWYFDVWGQGTMVTVSS VL: DIVLTQSPSSLAVSLGERATMNCKSSQSLLNSRSQKNYLAWYQQKPGQPPKLLIYGASTRGSGVPDRFSGSGSGTDFTLTISSLQAEDVAVYYCQNDHSYPFTFGQGTKLEIKR
9.91 | 23.2 |  | 9.91 |  |  |  |  | 26.1 | 26.2 | 22.6 | 24.8 | huPIIO-1VH2VL2 (antibody, V domains shown, Humanized IgG from Expi293, tested as culture supernatant; also called H2L2; HuPIIO-1VH2/L2) VH: QVQLQESGPGLVKPSQTLSLTCTVSGYSITSDYAWNWIRQFPGNKLEWMGYISYSGSTSYTPSLKSRITISRDTSKNHFFLKLSSVTAADTAVYYCAKSGGDYYGSSSYWYFDVWGQGTMVTVSS VL: DIVLTQSPSSLAVSLGERVTMNCKSSQSLLNSRSQKNYLAWYQQKPGQPPKLLIYGASTRGSGVPDRFSGSGSGTDFTLTISSVQAEDVAVYYCQNDHSYPFTFGQGTKLEIKR
9.91 | 23.3 |  | 9.91 | 8.03 | 0.71 | 0.703 | 0.0133 | 26.2 | 26.8 | 23 | 25.1 | huPIIO-1VH2VL1 (antibody, V domains shown, Humanized IgG from Expi293; also called H2L1; HuPIIO-1VH2/L1) VH: QVQLQESGPGLVKPSQTLSLTCTVSGYSITSDYAWNWIRQFPGNKLEWMGYISYSGSTSYTPSLKSRITISRDTSKNHFFLKLSSVTAADTAVYYCAKSGGDYYGSSSYWYFDVWGQGTMVTVSS VL: DIVLTQSPSSLAVSLGERATMNCKSSQSLLNSRSQKNYLAWYQQKPGQPPKLLIYGASTRGSGVPDRFSGSGSGTDFTLTISSLQAEDVAVYYCQNDHSYPFTFGQGTKLEIKR
9.91 | 21.9 | 25.3 | 9.91 |  |  |  |  | 25.8 | 26.2 | 22.1 | 24.6 | huPIIO-1VH3VL3 (antibody, V domains shown, Humanized IgG from Expi293, tested as culture supernatant; also called H3L3; HuPIIO-1VH3/L3) VH: DVQLQESGPGLVKPSQTLSLTCTVSGYSITSDYAWNWIRQFPGNKLEWMGYISYSGSTSYTPSLKSRITISRDTSKNHFFLKLSSVTAADTATYYCAKSGGDYYGSSSYWYFDVWGQGTTVTVSS VL: DIVLTQSPSSLAVSAGERVTMSCKSSQSLLNSRSQKNYLAWYQQKPGQPPKLLIYGASTRGSGVPDRFSGSGSGTDFTLTISSVQAEDVAVYYCQNDHSYPFTFGSGTKLEIKR
9.91 | 22.9 | 25.7 | 9.91 |  |  |  |  | 26.3 | 26.3 | 23 | 25.4 | huPIIO-1VH1VL3 (antibody, V domains shown, Humanized IgG from Expi293, tested as culture supernatant; also called H1L3; HuPIIO-1VH1/L3) VH: QVQLQESGPGLVKPSQTLSLTCTVSGYSITSDYAWNWIRQFPGNKLEWMGYISYSGSTSYTPSLKSRVTISRDTSKNHFSLKLSSVTAADTAVYYCAKSGGDYYGSSSYWYFDVWGQGTMVTVSS VL: DIVLTQSPSSLAVSAGERVTMSCKSSQSLLNSRSQKNYLAWYQQKPGQPPKLLIYGASTRGSGVPDRFSGSGSGTDFTLTISSVQAEDVAVYYCQNDHSYPFTFGSGTKLEIKR
9.91 | 23.4 | 25.6 | 9.91 |  |  |  |  | 26.4 | 26.5 | 23.2 | 25.4 | huPIIO-1VH2VL3 (antibody, V domains shown, Humanized IgG from Expi293, tested as culture supernatant; also called H2L3; HuPIIO-1VH2/L3) VH: QVQLQESGPGLVKPSQTLSLTCTVSGYSITSDYAWNWIRQFPGNKLEWMGYISYSGSTSYTPSLKSRITISRDTSKNHFFLKLSSVTAADTAVYYCAKSGGDYYGSSSYWYFDVWGQGTMVTVSS VL: DIVLTQSPSSLAVSAGERVTMSCKSSQSLLNSRSQKNYLAWYQQKPGQPPKLLIYGASTRGSGVPDRFSGSGSGTDFTLTISSVQAEDVAVYYCQNDHSYPFTFGSGTKLEIKR
9.91 | 23.9 | 25.1 | 9.91 |  |  |  |  | 25.7 | 26.7 | 23.6 |  | huPIIO-1VH3VL1 (antibody, V domains shown, Humanized IgG from Expi293, tested as culture supernatant; also called H3L1; HuPIIO-1VH3/L1) VH: DVQLQESGPGLVKPSQTLSLTCTVSGYSITSDYAWNWIRQFPGNKLEWMGYISYSGSTSYTPSLKSRITISRDTSKNHFFLKLSSVTAADTATYYCAKSGGDYYGSSSYWYFDVWGQGTTVTVSS VL: DIVLTQSPSSLAVSLGERATMNCKSSQSLLNSRSQKNYLAWYQQKPGQPPKLLIYGASTRGSGVPDRFSGSGSGTDFTLTISSLQAEDVAVYYCQNDHSYPFTFGQGTKLEIKR
9.91 | 22.2 | 25.2 | 9.91 | 8.15 | 0.831 | 0.824 | 0.0133 | 25.7 | 26.1 | 21.8 |  | huPIIO-1VH1VL2 (antibody, V domains shown, Humanized IgG from Expi293; also called H1L2; HuPIIO-1VH1/L2) VH: QVQLQESGPGLVKPSQTLSLTCTVSGYSITSDYAWNWIRQFPGNKLEWMGYISYSGSTSYTPSLKSRVTISRDTSKNHFSLKLSSVTAADTAVYYCAKSGGDYYGSSSYWYFDVWGQGTMVTVSS VL: DIVLTQSPSSLAVSLGERVTMNCKSSQSLLNSRSQKNYLAWYQQKPGQPPKLLIYGASTRGSGVPDRFSGSGSGTDFTLTISSVQAEDVAVYYCQNDHSYPFTFGQGTKLEIKR
9.91 | 24.8 | 26.2 | 9.91 |  |  |  |  | 26.9 | 27.3 | 24.2 | 25.4 | huPIIO-1VH4VL1 (antibody, V domains shown, Humanized IgG from Expi293, tested as culture supernatant; also called H4L1; HuPIIO-1VH4/L1) VH: DVQLQESGPGLVKPSQTLSLTCTVSGYSITSDYAWNWIRQFPGNKLEWMGYISYSGSTSYTPSLKSRITISRDTSKNHFFLQLSSVTAEDTATYYCAKSGGDYYGSSSYWYFDVWGQGTTVTVSS VL: DIVLTQSPSSLAVSLGERATMNCKSSQSLLNSRSQKNYLAWYQQKPGQPPKLLIYGASTRGSGVPDRFSGSGSGTDFTLTISSLQAEDVAVYYCQNDHSYPFTFGQGTKLEIKR
9.91 | 22.7 | 24.9 | 9.91 |  |  |  |  | 26.5 | 26.4 | 22.7 | 24.6 | huPIIO-1VH3VL2 (antibody, V domains shown, Humanized IgG from Expi293, tested as culture supernatant; also called H3L2) VH: DVQLQESGPGLVKPSQTLSLTCTVSGYSITSDYAWNWIRQFPGNKLEWMGYISYSGSTSYTPSLKSRITISRDTSKNHFFLKLSSVTAADTATYYCAKSGGDYYGSSSYWYFDVWGQGTTVTVSS VL: DIVLTQSPSSLAVSLGERVTMNCKSSQSLLNSRSQKNYLAWYQQKPGQPPKLLIYGASTRGSGVPDRFSGSGSGTDFTLTISSVQAEDVAVYYCQNDHSYPFTFGQGTKLEIKR
